Laboratory results: publication PMC6765112, “Specificity of MYB interactions relies on motifs in ordered and disordered contexts” (Nucleic Acids Research, 2019)
Ends that are not written are not given here.

How the values were obtained:
[1] = system: MYC3; assay: Split-ubiquitin assay, MYC3 as bait; assay type: cell-based, Arabidopsis thaliana; conditions: yeast, SD-AHLW growth
Description: (§1) The rapamycin-compatible yeast strain NMY51 TOR1-1 Δfpr1 ([35]) was transformed according to DUALhunter™ kit instructions (Dualsystems biotech). Briefly, overnight 2×YPAD cultures were diluted to OD600 = 0.2, and incubated at 30°C, 150 RPM for 4–6 h in 2×YPAD, before harvesting the cells by centrifugation at 700 g for 5 min. The cells were washed with H2O, then 0.1 M LiOAc, before resuspending in 0.1 M LiOAc with 15% glycerol. The competent cells were then aliquoted and stored at −80°C until transformation. For double transformation with bait and prey plasmids, competent cells were thawed on ice, and mixed with transformation mix (240 μl 50% PEG-3350, 35 μl 1 M LiOAc and 25 μl 2 mg/ml ssDNA per transformation) and 200 ng of each plasmid, before being exposed to a 42°C heat shock in a water bath for 45 min. The cells were then chilled on ice for a few minutes, sedimented by centrifugation (3000 g, 1 min), resuspended in sterile H2O, plated on SD-LW plates and grown at 30°C for 2–3 days.
(§2) For drop tests, cells from three individual colonies of each bait/prey combination were grown overnight in liquid SD-LW media. Next day, culture densities were normalized to OD600 = 0.05, dilution series (OD600 = 0.05, OD600 = 0.005, OD600 = 0.0005 and OD600 = 0.00005) were spotted on square plates (SD-LW, SD-AHLW and SD-AHLW+Rapa) and grown for 2 days at 30°C before taking pictures.
(§3) To identify interaction sites mediating specific MYB–MYC complex formation, we selected two TFs from each family. These were MYB28 and MYB29 from MYB subgroup 12, and two of their partner bHLH TFs, MYC3 and MYC4. To define the region mediating the interactions we applied a chemically inducible dimerization split-ubiquitin system ([35]). […] This is used as an in-built positive control for correct expression and functionality of the prey fusion protein and thereby reduces the incidence of false negatives.

[2] = system: MYC4; assay: Split-ubiquitin assay, MYC4 as bait; assay type: cell-based, Arabidopsis thaliana; conditions: yeast, SD-AHLW growth
Description: as §1, §2, §3

Molecule | interaction with MYC3 (in words) [1] | interaction with MYC4 (in words) [2]
MYB32: MYB TF from subgroup 4 | did not | did not
MYB29 (S175-L222): 47-residue fragment of MYB29 (S175-L222) (SKKRCFKRSSSTSKLLNKVAARASSMGTILGASIEGTLISSTPLSSCL; not fully specified; cysteine pairing not given here) | – | sufficient for the interaction
MYB29 non-MYB region (G120-I336): non-MYB region of MYB29 (G120-I336) (protein, left off: NubG and FRB (from the vector pFRB), end not stated, kept) GIDPVTHKPLAYDSNPDEQSQSGSISPKSLPPSSSKNVPEITSSDETPKYDASLSSKKRCFKRSSSTSKLLNKVAARASSMGTILGASIEGTLISSTPLSSCLNDDFSETSQFQMEEFDPFYQSSEHIIDHMKEDISINNSEYDFSQFLEQFSNNEGEEADNTGGGYNQDLLMSDVSSTSVDEDEMMQNITGWSNYLLDHSDFNYDTSQDYDDKNFI | – | mediated by the non-MYB region
MYB21: MYB TF from subgroup 19 (protein, left off: NubG and FRB (from the vector pFRB), end not stated, kept) MEKRGGGSSGGSGSSAEAEVRKGPWTMEEDLILINYIANHGDGVWNSLAKSAGLKRTGKSCRLRWLNYLRPDVRRGNITPEEQLIIMELHAKWGNRWSKIAKHLPGRTDNEIKNFWRTRIQKYIKQSDVTTTSSVGSHHSSEINDQAASTSSHNVFCTQDQAMETYSPTPTSYQHTNMEFNYGNYSAAAVTATVDYPVPMTVDDQTGENYWGMDDIWSSMHLLNGN | not able to reproduce the interaction | not able to reproduce the interaction
MYB47: R2R3 MYB TF containing 165LLNKLA170 (protein, left off: NubG and FRB (from the vector pFRB), end not stated, kept, R2R3 MYB TF containing 165LLNKLA170) MGRTTWFDVDGMKKGEWTAEEDQKLGAYINEHGVCDWRSLPKRAGLQRCGKSCRLRWLNYLKPGIRRGKFTPQEEEEIIQLHAVLGNRWAAMAKKMQNRTDNDIKNHWNSCLKKRLSRKGIDPMTHEPIIKHLTVNTTNADCGNSSTTTSPSTTESSPSSGSSRLLNKLAAGISSRQHSLDRIKYILSNSIIESSDQAKEEEEKEEEEEERDSMMGQKIDGSEGEDIQIWGEEEVRRLMEIDAMDMYEMTSYDAVMYESSHILDHLF | we could confirm those interactions | we could confirm those interactions
MYB51: MYB TF from subgroup 12, containing a MIM (protein, left off: NubG and FRB (from the vector pFRB), end not stated, kept, MYB TF from subgroup 12, containing a MIM) MVRTPCCKAELGLKKGAWTPEEDQKLLSYLNRHGEGGWRTLPEKAGLKRCGKSCRLRWANYLRPDIKRGEFTEDEERSIISLHALHGNKWSAIARGLPGRTDNEIKNYWNTHIKKRLIKKGIDPVTHKGITSGTDKSENLPEKQNVNLTTSDHDLDNDKAKKNNKNFGLSSASFLNKVANRFGKRINQSVLSEIIGSGGPLASTSHTTNTTTTSVSVDSESVKSTSSSFAPTSNLLCHGTVATTPVSSNFDVDGNVNLTCSSSTFSDSSVNNPLMYCDNFVGNNNVDDEDTIGFSTFLNDEDFMMLEESCVENTAFMKELTRFLHEDENDVVDVTPVYERQDLFDEIDNYFG | interacted with both MYC3 and MYC4 | interacted with both MYC3 and MYC4
L190F: mutated MYB29 (AAs 120-222); MIM sequence - S TS KL FNK VA ARA SS - (protein, left off: NubG and FRB (from the vector pFRB), end not stated, kept) GIDPVTHKPLAYDSNPDEQSQSGSISPKSLPPSSSKNVPEITSSDETPKYDASLSSKKRCFKRSSSTSKLFNKVAARASSMGTILGASIEGTLISSTPLSSCL | – | weakly interacting
N191L: mutated MYB29 (AAs 120-222); MIM sequence - S TS KL LLK VA ARA SS - (protein, left off: NubG and FRB (from the vector pFRB), end not stated, kept) GIDPVTHKPLAYDSNPDEQSQSGSISPKSLPPSSSKNVPEITSSDETPKYDASLSSKKRCFKRSSSTSKLLLKVAARASSMGTILGASIEGTLISSTPLSSCL | – | weakly interacting
N191Q: mutated MYB29 (AAs 120-222); MIM sequence - S TS KL LQK VA ARA SS - (protein, left off: NubG and FRB (from the vector pFRB), end not stated, kept) GIDPVTHKPLAYDSNPDEQSQSGSISPKSLPPSSSKNVPEITSSDETPKYDASLSSKKRCFKRSSSTSKLLQKVAARASSMGTILGASIEGTLISSTPLSSCL | – | weakly interacting
MYB29 DBD (residues M1-H126): DBD of MYB29 (residues M1-H126) (protein, left off: NubG and FRB (from the vector pFRB), end not stated, kept) MSRKPCCVGEGLKKGAWTAEEDKKLISYIHEHGEGGWRDIPQKAGLKRCGKSCRLRWANYLKPDIKRGEFSYEEEQIIIMLHASRGNKWSVIARHLPKRTDNEIKNYWNTHLKKLLIDKGIDPVTH | – | neither sufficient, nor necessary for the interaction
MYB113: MYB TF from subgroup 6 (protein, left off: NubG and FRB (from the vector pFRB), end not stated, kept) MGESPKGLRKGTWTTEEDILLRQCIDKYGEGKWHRVPLRTGLNRCRKSCRLRWLNYLKPSIKRGKLCSDEVDLVLRLHKLLGNRWSLIAGRLPGRTANDVKNYWNTHLSKKHDERCCKTKMINKNITSHPTSSAQKIDVLKPRPRSFSDKNSCNDVNILPKVDVVPLHLGLNNNYVCESSITCNKDEQKDKLININLLDGDNMWWESLLEADVLGPEATETAKGVTLPLDFEQIWARFDEETLELN | did not | did not
MYB29 mut: MYB29 with mutations to abolish the MIM: L190K, K192N and A194Y (protein, left off: NubG and FRB (from the vector pFRB), end not stated, kept, MYB29 with mutations to abolish the MIM: L190K, K192N and A194Y) MSRKPCCVGEGLKKGAWTAEEDKKLISYIHEHGEGGWRDIPQKAGLKRCGKSCRLRWANYLKPDIKRGEFSYEEEQIIIMLHASRGNKWSVIARHLPKRTDNEIKNYWNTHLKKLLIDKGIDPVTHKPLAYDSNPDEQSQSGSISPKSLPPSSSKNVPEITSSDETPKYDASLSSKKRCFKRSSSTSKLKNNVYARASSMGTILGASIEGTLISSTPLSSCLNDDFSETSQFQMEEFDPFYQSSEHIIDHMKEDISINNSEYDFSQFLEQFSNNEGEEADNTGGGYNQDLLMSDVSSTSVDEDEMMQNITGWSNYLLDHSDFNYDTSQDYDDKNFI | abolished interaction with MYC3 and MYC4 | abolished interaction with MYC3 and MYC4
WT: MYB29 (AAs 120-222); MIM sequence - S TS KL LNK VA ARA SS - (protein, left off: NubG and FRB (from the vector pFRB), end not stated, kept) MSRKPCCVGEGLKKGAWTAEEDKKLISYIHEHGEGGWRDIPQKAGLKRCGKSCRLRWANYLKPDIKRGEFSYEEEQIIIMLHASRGNKWSVIARHLPKRTDNEIKNYWNTHLKKLLIDKGIDPVTHKPLAYDSNPDEQSQSGSISPKSLPPSSSKNVPEITSSDETPKYDASLSSKKRCFKRSSSTSKLLNKVAARASSMGTILGASIEGTLISSTPLSSCLNDDFSETSQFQMEEFDPFYQSSEHIIDHMKEDISINNSEYDFSQFLEQFSNNEGEEADNTGGGYNQDLLMSDVSSTSVDEDEMMQNITGWSNYLLDHSDFNYDTSQDYDDKNFI | interacted with both MYC3 and MYC4 | interacted with both MYC3 and MYC4
